Laboratory results published in patent US11781164B2, “Demethylation of reticuline and derivatives thereof with fungal cytochrome P450” (priority 2017, dated 2023).

Test system: thebaine
Assay: Demethylation of thebaine by new cytochrome P450 fungal and plant homologs co-expressed with CPRs in S. cerevisiae
Details: 0.5 mM thebaine, SC or DELFT media pH 7, 72 h, 30° C.; co-expressed with Cel_CPR_co, Tp_CPR_5866, Tp_CPR_DN10898 or POR1

B1: CYPDN24: cytochrome P450 homolog A0A077WFB8 from Lichtheimia ramosa, codon-optimized (protein, listed as Lichtheimia ramosa)
chain: MDNQTWSSVPGASFWKGKLVSGHYVREVFLNNDFDFLKGTGKRFDTLLLTDTTTQDVDIEVFRTVVMKHLTKEMKAYTPRVVQHLTAGGDEKLGDAKEPQELVHLFPLLQHMVAKASASIFVGTELASDDDVVETCKNIAIDIGSELGPGSYIMDAFPSLARLRMWYIGKFGKAINKHRQHLLRALGPVIDKRLAAAEKGGDWDRPQDILQDIIETINLTLDNPKRHILPVKWLLALFFASIHTTSENSTIVLYRIMQNPEIIDVLLEEQNQVLEKHYGSNIDYSDTTKLFTGEVIKELVKLDSLCREAMRARNSYLELPHTYVGKSRITLSCGAIIEPGHDVLINMWGNHRDAKIQRDTIGDHHDFKPFRFVGLDRQSTKIGDDFLMFGQGRHACPGRWFAIQEIKTIVSVLIRYYKLTPNGPITFPTHPRMPMPMGQVIIQRRQ
**Q.** With B1 as the molecule, how does the Northebaine production read?
**A.** Its Northebaine production is “+”.

B2: CYPDN21: cytochrome P450 homolog XM_018432503 from Phycomyces blakesleeanus, codon-optimized (protein, listed as Phycomyces biakesleeanus)
chain: MLAKKVNGYAGFTLDAIQTIYFNRAIKLVRPPKALSHIPHVPYFSYMSSLIKKENTISRNKRFANKLFEDPESNGLYLRPNVKGWEVVVTRPEDAKKLLFKSDIFPKADFTSGIDGTILSKFSRGPNLLFTTGAHWKAQRMVANPAFHRSAPVKLFGELTQKLFRVMDNRANKTVDITRLMEAWALDAIGLAGFDFDFNAIENPNSSWVRIYERVDKALVHPFYSFFPKADKYLLWVLPNRKQAHTDLDIFLKMIDNVIIAKKKALHENKSNKHLENSEKDLLTLMLESEAKGSTLSAKELRSNMCVFFAAGHETTANSLAYAIYFMAVNPDVQCKAREEAFKVLGDAQEDIMPTIEQTKSMDYINAVIKETLRSHSPALGTFARKATKDTELGGVLIPKDTMISMDIFNLHHNPNVWNNPDEFDPSRFLPGGEAEKQINNGFSWIPFGTGARQCIGMNFSLIEQRVMLSMMLRKFAWSLPEDSIHKDYLHTTNLVISSAKDLNINFEKLY
**Q.** For B2, which Northebaine production is on record?
**A.** Its Northebaine production is “+”.

B3: CYPDN29: cytochrome P450 homolog A0A068SBU5 from Lichtheimia corymbifera, codon-optimized (protein, listed as Lichtheimia corymbifera)
chain: MYTLVSFLKDQNIIAVLKNAIHAQQQGTTASSITILSLAVAITTFAVHRIRLYSVKEHGVPLVPYVLPFIGSSPEYRKDPKAFLEKWTAKFGPVFRAHIFGRVYTIISGHYVREVFLNEDFSFEVGMGKTFDGWLITDTKKSELFSTPLVRSMVMKHLAVDVKNYTPRAVEHLTIAAREMLGDIGESKELPHLYPLIQHMVSTAIASILVGLKICKDKDLLETFKNVAVDIGSELNPDSYLYEAFPTISRLRQWYLGKYGKAINKHQEHMLRVLGPEIDERLAAMERGDGGWERPEDILQGILETAKLTSDHPQRYMVPIKWFLILVFASIHTTSQNTTVAMYRLLQHPEVIDELLEEQNQVFEKHHGSNYDDHDITKLLTGEVIKDLVKLDSVCREAMRISSFYAELPHTYIGKSPLTMSNGTIINPGDDVLINGYTNHHDPDIQIDGGGDYAEFKPFRFVEKGRQSTRIGDDYLIFGQGKHACPGRWFAMQEMKTTISFLIRQYIITAKGDIMFLKGHRQKIPMGQVIFQKR
**Q.** For B3, which Northebaine production is on record?
**A.** Its Northebaine production is “+”.

B4: CYPDN30: cytochrome P450 homolog A0A1X2H4N2 from Syncephalastrum racemosum, codon-optimized (protein, listed as Syncephalastrum racemosum)
chain: MNALLQRQDKMRDFLNTREGVYGITAAVAVVLISAYSLRRTVYTSRRKDEIATVPYKLPLKGSTEEYRADPRAFVEKYAKMYGPVYRAYLFGEMMTIVSDSYVREIFLNDNFNFFQAVKDRFDMVKLCNCANDEGHGIADIVKRCLNPRLDMYTERVNEQLEEASKEILTEVDTKGSQELMHMYILVQHMVARASATVFVGPELAKNSELIDSFKNMVIQVGSQLRPNPWLEPFPRLNSLRMWYIGKTSPVVRKHRLQLRSAVKPSIDDRLARQKSQGNAFQRPDDLLQDIIERHPEAKTKSDIYDYVVDTLTALIFAALHTTSENSTVVLYRLLQHPELMEELVAEQDAVLLEHGLPKDSSARVMTRQMIKKFEKLDSVCRESFRLRNDYLGLPHTYEGKKDIVLSNGAIIKPGEKAIINLWGNHHSGNTPQSTSQDYFGFDPYRFVKQDKQATKISEDFLFFGLGKHACPGRFFAVQEAKVLISVLLRNYKLSPVDPPYFATDDTMKIPAGRIRIERR
**Q.** For B4, which Northebaine production is on record?
**A.** The Northebaine production was “+”.

B5: CYPDN27: cytochrome P450 homolog A0A077WLY1 from Lichtheimia ramosa, codon-optimized (protein, listed as Licthheimia ramosa)
chain: MPSLIPKNASDAIEQYISRLKTMDRRHMGIIAGSVAVVSLYTFYRHLTRSRDDIPLVPYTWPLIGSTPSFNRDPVAFVEKWSQEYGPVFRAHLQGRIQTIIAAEYVRDIFMNSDFDFLFAVNKRFDPHLLADIDDNTFTTEMLRKVVMKLTTQLKSYTPRAVEFLDVGRNEFLSHFPAGPVHLPHLYPLIQHMVGKASAAIFAGTKLASNPEVVESFKNITLEVGAEIAVDSVFLERYWGLNRFRMWLMGKFSKSMKRHHRVLKDALRPEIKDRIEASSDPSRERPDDMLQIIIESYYTERRGESVDDLTEDLVKWLISLIFAAIHTTSENSTVVLYRILSKPDVVEELLEEQREVLVRHGISPDEKDPSKMFTGAVIKDLVKLDSACREGMRMRNDYLTLGHTYLGKKPITLSCGAVIKPGEDVIINTWYNHRNNKIQKIQGDDYSNYNPFRFVGSDRQAARIGDDFLIFGEGKHACPGRWFALQEMKTIISFLIRDYKMAPEGPITFPKNPKMTLPMGQVILESRH
**Q.** Which Northebaine production does the source give for B5 here?
**A.** Its Northebaine production is “+”.

B6: CYPDN31: cytochrome P450 homolog A0A291C3B2 from Absidia caerulea, codon-optimized (protein, listed as Absidia caerulea)
chain: MLTEYIHHFINNFDQKKTMDQLQTMVSSKEGMIGLATAAVLMSGAAVYKSTRIERGCPQVPNQSYFMGSTKEYRNNPAAFIEKWEKELGPVYGAYLFGQYTTVVSGPQVREVFLNDDFDFIAGIRRDFDTNLLSNGGDLRDLPVHKFAGSIKKNLSPKLPFYTSRVIEHLKIGLKEFCGVVPDEGKEFDHVYPLVQHMVAKASASVFVGPELAKNEQLIDSFKNMVLEVGSELAPKPYLEFFPNLMRLRMWFIGKTSQKVKRHRDQLRAALAPQVEYRLKAMKENDSNWDRPNDFLQDILESGDIPAHVDVTDHCCDWMTQIIFAALHTTSENGTLSFYRLLDNPKVLEDLLEEQNQVLEDAGYDSSVGPEVFTREILNKFVKMDSVIRETSRLRNDYIGLPHKNISSKTITLSGGAMIRPGERAYVNAYSNHRDGTIQKVTDNLKSFEPYRFVNQDRNSTKIGEDFIFFGMGKHACPGRWFAIQEIKTIIAMMIRSYQLSALGPVTFPTDDYSRIPMGRFKIVPRK
**Q.** For B6, which Northebaine production is on record?
**A.** The Northebaine production was “+”.

B7: CYPDN28: cytochrome P450 homolog A0A1X2HYB6 from Absidia repens, codon-optimized (protein, listed as Absidia repens)
chain: MLTQYIHQFFNNFDQKKTMDQLQSVASSKDGVIGIATALILISGVAAYKSSTVERGCPQVPCGTFSFGSTSEYRENPVAFVKKWEEKLGPVFGAQLFGQYATIVSGPQVREIFSNENFSFMAGIQRDFDTYLLANGGSIHDLPPHVVSGGIKKNLSPKLPFYTSRVIEHLKIGLYEQCGVVPDEGKEFDHVYPFVQHMVAKASASVFVGPELAKDLNLVDSFKNMVLEVGSDMGPKPYLEHFPHLMRLRMWYIGKTSTNVKRHRDQLFAALVPQIDSRLKAMKEKDSNWDRPNDFLQDILETDDCPPHMDIYSYCVDWMTQIIFAALHTTSENGTIVLYRLLDNPKVLEELYEEQNAVLEEAGYDDTVGPEVFTREILNKFVKMDSVIRESCRLRNDYIGLPHTNVGKKTIVLSGGAMIRPGENAFVNFYSNHRDEKLQKSGMNANNFEPYRFVDQGKNSTKIGDDFMFFGMFKHACPGRWFAIQEIKTILAMLIRSYKMSAIDSVVFPTSDYTRIPTGRFKIVPRK
**Q.** For B7, which Northebaine production is on record?
**A.** Its Northebaine production is “+”.

B8: CYPDN20: cytochrome P450 homolog A0A163A6R1 from Phycomyces blakesleeanus, codon-optimized (protein, listed as Phycomyces biakesleeanus)
chain: MCLFFCKKVYDFTAVPYELKKFPNIPFFYFVKSILSVESVENRTKRLVLPLLHKNNGFYVSRFPFYWTVFTTDPDAVQYLLMKGEIFPKDTRFTSAVSKDSLIIRLFGSSNVAFISGEPLKHQCRTMNPAFRRTAPVNIFGRLIPDMFRLIDKSDGDILIVNLLQRMTFDALGKALFGFDFKTMKEDNSAWMTAYSDAMSGVTAPVLNIIPSLEYILRYFYPNYTKAKNGVDKLNRLILELVNKKKQELEESMPQSCSNNNNGDTDGDAYDQEKDLLTLILEAEMKDNKSSGSDDLRANMATFIMAGHETTASSVSFCIYHMVINKDVRDKARREALDILGYDDFISPPTFDECKRVNYINMVVKEALRLCTPGGLLFERIATEDVFLSGVFIPKGTRISVDIEALHKNPAIWKNPSVFDPERFSKGGEHEQHRGITWAPFSDGNRKCLGINFSMTEQQVILLMLLKHYEWDLSENSIHNNGMVYDNVFSFAPKTLSIKFHKRH
**Q.** With B8 as the molecule, how does the Northebaine production read?
**A.** Its Northebaine production is “+”.

B9: CYPDN22: cytochrome P450 homolog XM_023609077 from Rhizopus microsporus, codon-optimized (protein, listed as Rhizopus microsporus)
chain: MAISFLYREGPAERLKRLKLPAMRKGNGFYLSRVPFCWTVYVANPIAAKQLLLKAENFPKSHFLMVGKDSPFVQFLGPDNVVNSNGENWKKQRKVMNPAFHRSMPVKTIAGVVLTLFAVIDKYKGKVPVTSTMQEFTLDVLGLAIFNFDFGSLKGDAKKWRAEYKLVMLFDPVTNVFTGFDFLLRYIYPKRIKGANAVNNLNKLFDQLVKQKRLEVQSGVHANKPQNEKDLLTLMLEAEQRGEAMTTDMEMRHNVAVFFLAGHESTAHVLSFTLYFLAKNKYVQQKLREEVSRVMGRKSVDVAPTLEELRQMEYLYAVIKESLRLCSIFDVLILRDAVEDMYLDDTFIPKGTRITIDVSAIQRDPKVWNNPDDFIPERFMEGGEAEGHEGMTWLPFGGGARQCIGMNFSLTEQKVALAMLVQRYDIDVPKDSIHYEDIAYERPFYLAPQSLELTFTKLH
**Q.** For B9, which Northebaine production is on record?
**A.** The Northebaine production was “+”.
